Measurements as given in patent publication US20140193430A1.

What was measured:
[1] = target: recombinant KIR2DL1 protein (entire extracellular domain, produced in E. coli, refolded) (human) (UniProt P43626); assay: BIAcore, second Ab on KIR2DL1 chip with first Ab (competitor) 1-6F1 bound
[2] = target: recombinant KIR2DL1 protein (entire extracellular domain, produced in E. coli, refolded) (human) (UniProt P43626); assay: BIAcore, second Ab on KIR2DL1 chip with first Ab (competitor) 1-6F5 bound
[3] = target: recombinant KIR2DL1 protein (entire extracellular domain, produced in E. coli, refolded) (human) (UniProt P43626); assay: BIAcore, second Ab on KIR2DL1 chip with first Ab (competitor) 1-7F9 bound
[4] = target: recombinant KIR2DL3 protein (entire extracellular domain, produced in E. coli, refolded) (human) (UniProt P43628); assay: BIAcore, second Ab on KIR2DL3 chip with first Ab (competitor) 1-4F1 bound
[5] = target: recombinant KIR2DL3 protein (entire extracellular domain, produced in E. coli, refolded) (human) (UniProt P43628); assay: BIAcore, second Ab on KIR2DL3 chip with first Ab (competitor) 1-6F1 bound
[6] = target: recombinant KIR2DL3 protein (entire extracellular domain, produced in E. coli, refolded) (human) (UniProt P43628); assay: BIAcore, second Ab on KIR2DL3 chip with first Ab (competitor) 1-6F5 bound
[7] = target: recombinant KIR2DL3 protein (entire extracellular domain, produced in E. coli, refolded) (human) (UniProt P43628); assay: BIAcore, second Ab on KIR2DL3 chip with first Ab (competitor) 1-7F9 bound
immobilized KIR2DS1 [8] = target: immobilized KIR2DS1 (UniProt Q14954); assay: BIAcore, second Ab on KIR2DS1 chip with first Ab (competitor) 1-7F9 bound
[9] = target: recombinant KIR2DL1 protein (entire extracellular domain, produced in E. coli, refolded) (human) (UniProt P43626); assay: BIAcore, direct binding of second Ab to KIR2DL1 chip (field of first Ab 1-6F1)
[10] = target: recombinant KIR2DL1 protein (entire extracellular domain, produced in E. coli, refolded) (human) (UniProt P43626); assay: BIAcore, direct binding of second Ab to KIR2DL1 chip (field of first Ab 1-6F5)
[11] = target: recombinant KIR2DL1 protein (entire extracellular domain, produced in E. coli, refolded) (human) (UniProt P43626); assay: BIAcore, direct binding of second Ab to KIR2DL1 chip (field of first Ab 1-7F9)
[12] = target: recombinant KIR2DL3 protein (entire extracellular domain, produced in E. coli, refolded) (human) (UniProt P43628); assay: BIAcore, direct binding of second Ab to KIR2DL3 chip (field of first Ab 1-4F1)
[13] = target: recombinant KIR2DL3 protein (entire extracellular domain, produced in E. coli, refolded) (human) (UniProt P43628); assay: BIAcore, direct binding of second Ab to KIR2DL3 chip (field of first Ab 1-6F1)
[14] = target: recombinant KIR2DL3 protein (entire extracellular domain, produced in E. coli, refolded) (human) (UniProt P43628); assay: BIAcore, direct binding of second Ab to KIR2DL3 chip (field of first Ab 1-6F5)
[15] = target: recombinant KIR2DL3 protein (entire extracellular domain, produced in E. coli, refolded) (human) (UniProt P43628); assay: BIAcore, direct binding of second Ab to KIR2DL3 chip (field of first Ab 1-7F9)
immobilized KIR2DS1 [16] = target: immobilized KIR2DS1 (UniProt Q14954); assay: BIAcore, direct binding of second Ab to KIR2DS1 chip (field of first Ab 1-7F9)
[17] = target: recombinant KIR2DL1 protein (entire extracellular domain, produced in E. coli, refolded) (human) (UniProt P43626); assay: BIAcore competition on KIR2DL1 chip; first Ab Pan2D, second Ab (competitor) EB6
[18] = target: recombinant KIR2DL1 protein (entire extracellular domain, produced in E. coli, refolded) (human) (UniProt P43626); assay: BIAcore competition on KIR2DL1 chip; first Ab Pan2D, second Ab (competitor) 1-4F1
[19] = target: recombinant KIR2DL1 protein (entire extracellular domain, produced in E. coli, refolded) (human) (UniProt P43626); assay: BIAcore competition on KIR2DL1 chip; first Ab Pan2D, second Ab (competitor) 1-6F1
[20] = target: recombinant KIR2DL1 protein (entire extracellular domain, produced in E. coli, refolded) (human) (UniProt P43626); assay: BIAcore competition on KIR2DL1 chip; first Ab Pan2D, second Ab (competitor) 1-6F5
[21] = target: recombinant KIR2DL1 protein (entire extracellular domain, produced in E. coli, refolded) (human) (UniProt P43626); assay: BIAcore competition on KIR2DL1 chip; first Ab Pan2D, second Ab (competitor) 1-7F9
[22] = target: recombinant KIR2DL1 protein (entire extracellular domain, produced in E. coli, refolded) (human) (UniProt P43626); assay: BIAcore competition on KIR2DL1 chip; first Ab Pan2D, second Ab (competitor) DF200
[23] = target: recombinant KIR2DL3 protein (entire extracellular domain, produced in E. coli, refolded) (human) (UniProt P43628); assay: BIAcore competition on KIR2DL3 chip; first Ab Pan2D, second Ab (competitor) 1-4F1
[24] = target: recombinant KIR2DL3 protein (entire extracellular domain, produced in E. coli, refolded) (human) (UniProt P43628); assay: BIAcore competition on KIR2DL3 chip; first Ab Pan2D, second Ab (competitor) 1-6F1
[25] = target: recombinant KIR2DL3 protein (entire extracellular domain, produced in E. coli, refolded) (human) (UniProt P43628); assay: BIAcore competition on KIR2DL3 chip; first Ab Pan2D, second Ab (competitor) 1-6F5
[26] = target: recombinant KIR2DL3 protein (entire extracellular domain, produced in E. coli, refolded) (human) (UniProt P43628); assay: BIAcore competition on KIR2DL3 chip; first Ab Pan2D, second Ab (competitor) 1-7F9
[27] = target: recombinant KIR2DL3 protein (entire extracellular domain, produced in E. coli, refolded) (human) (UniProt P43628); assay: BIAcore competition on KIR2DL3 chip; first Ab Pan2D, second Ab (competitor) DF200
[28] = target: recombinant KIR2DL3 protein (entire extracellular domain, produced in E. coli, refolded) (human) (UniProt P43628); assay: BIAcore competition on KIR2DL3 chip; first Ab Pan2D, second Ab (competitor) gl183
immobilized KIR2DS1 [29] = target: immobilized KIR2DS1 (UniProt Q14954); assay: BIAcore competition on KIR2DS1 chip; first Ab Pan2D, second Ab (competitor) 1-4F1
immobilized KIR2DS1 [30] = target: immobilized KIR2DS1 (UniProt Q14954); assay: BIAcore competition on KIR2DS1 chip; first Ab Pan2D, second Ab (competitor) 1-7F9
immobilized KIR2DS1 [31] = target: immobilized KIR2DS1 (UniProt Q14954); assay: BIAcore competition on KIR2DS1 chip; first Ab Pan2D, second Ab (competitor) DF200
[32] = target: KIR2DL1(R131W)-hFc (human) (UniProt P43626); assay: ELISA, KIR2DL1(R131W)-hFc captured via goat anti-human antibodies, mAb titrated, peroxidase anti-mouse, A450 [panel pan2D]
[33] = target: recombinant KIR2DL1 protein (entire extracellular domain, produced in E. coli, refolded) (human) (UniProt P43626); assay: BIAcore, second Ab on KIR2DL1 chip with first Ab (competitor) EB6 bound
[34] = target: recombinant KIR2DL1 protein (entire extracellular domain, produced in E. coli, refolded) (human) (UniProt P43626); assay: BIAcore, direct binding of second Ab to KIR2DL1 chip (field of first Ab EB6)
[35] = target: recombinant KIR2DL1 protein (entire extracellular domain, produced in E. coli, refolded) (human) (UniProt P43626); assay: BIAcore competition on KIR2DL1 chip; first Ab EB6, second Ab (competitor) EB6
[36] = target: recombinant KIR2DL1 protein (entire extracellular domain, produced in E. coli, refolded) (human) (UniProt P43626); assay: BIAcore competition on KIR2DL1 chip; first Ab EB6, second Ab (competitor) 1-4F1
[37] = target: recombinant KIR2DL1 protein (entire extracellular domain, produced in E. coli, refolded) (human) (UniProt P43626); assay: BIAcore competition on KIR2DL1 chip; first Ab EB6, second Ab (competitor) 1-6F1
[38] = target: recombinant KIR2DL1 protein (entire extracellular domain, produced in E. coli, refolded) (human) (UniProt P43626); assay: BIAcore competition on KIR2DL1 chip; first Ab EB6, second Ab (competitor) 1-7F9
[39] = target: recombinant KIR2DL1 protein (entire extracellular domain, produced in E. coli, refolded) (human) (UniProt P43626); assay: BIAcore competition on KIR2DL1 chip; first Ab EB6, second Ab (competitor) DF200
[40] = target: recombinant KIR2DL1 protein (entire extracellular domain, produced in E. coli, refolded) (human) (UniProt P43626); assay: BIAcore competition on KIR2DL1 chip; first Ab EB6, second Ab (competitor) Pan2D

monoclonal antibody NKVSF1
RU, binding with first Ab present (RU2) [1]: 440 RU
RU, binding with first Ab present (RU2) [2]: 440 RU
RU, binding with first Ab present (RU2) [3]: 534 RU
RU, binding with first Ab present (RU2) [4]: 890 RU
RU, binding with first Ab present (RU2) [5]: 1090 RU
RU, binding with first Ab present (RU2) [6]: 950 RU
RU, binding with first Ab present (RU2) [7]: 830 RU
RU, binding with first Ab present (RU2) (immobilized KIR2DS1 [8]): 1200 RU
RU, direct binding (RU1) [9]: 475 RU
RU, direct binding (RU1) [10]: 475 RU
RU, direct binding (RU1) [11]: 545 RU
RU, direct binding (RU1) [12]: 2400 RU
RU, direct binding (RU1) [13]: 990 RU
RU, direct binding (RU1) [14]: 990 RU
RU, direct binding (RU1) [15]: 870 RU
RU, direct binding (RU1) (immobilized KIR2DS1 [16]): 1350 RU
% inhibition of second Ab binding by first Ab [17]: 90%
% inhibition of second Ab binding by first Ab [18]: 95%
% inhibition of second Ab binding by first Ab [19]: 12%
% inhibition of second Ab binding by first Ab [20]: 13%
% inhibition of second Ab binding by first Ab [21]: 2%
% inhibition of second Ab binding by first Ab [22]: 90%
% inhibition of second Ab binding by first Ab [23]: 68%
% inhibition of second Ab binding by first Ab [24]: 8%
% inhibition of second Ab binding by first Ab [25]: 18%
% inhibition of second Ab binding by first Ab [26]: 15%
% inhibition of second Ab binding by first Ab [27]: 95%
% inhibition of second Ab binding by first Ab [28]: 85%
% inhibition of second Ab binding by first Ab (immobilized KIR2DS1 [29]): 100%
% inhibition of second Ab binding by first Ab (immobilized KIR2DS1 [30]): 45%
% inhibition of second Ab binding by first Ab (immobilized KIR2DS1 [31]): 100%
EC50 (read off the curve) [32]: 20 nM

EB6 (IgG1 anti KIR2DL1) (antibody)
RU, binding with first Ab present (RU2) [33]: 200 RU
RU, binding with first Ab present (RU2) [1]: 320 RU
RU, binding with first Ab present (RU2) [3]: 180 RU
RU, direct binding (RU1) [34]: 460 RU
% inhibition of second Ab binding by first Ab [35]: 57%
RU, direct binding (RU1) [9]: 260 RU
RU, direct binding (RU1) [11]: 460 RU
% inhibition of second Ab binding by first Ab [36]: 48%
% inhibition of second Ab binding by first Ab [37]: 23%
% inhibition of second Ab binding by first Ab [38]: 65%
% inhibition of second Ab binding by first Ab [39]: 60%
% inhibition of second Ab binding by first Ab [40]: 40%
